# In PMC12291119 (2025):
# Bridge positions count the residues as written; N and C are the ends. Square brackets hold non-standard residues; d marks the D form. Primed or numbered codes have the meaning given here. Ends that are not written are not given here. * marks the point of attachment. Man9GlcNAc2 = CC(=O)N[C@@H]1[C@@H](O)[C@H](O[C@@H]2O[C@H](CO)[C@@H](O[C@@H]3O[C@H](CO[C@H]4O[C@H](CO[C@H]5O[C@H](CO)[C@@H](O)[C@H](O)[C@@H]5O[C@H]5O[C@H](CO)[C@@H](O)[C@H](O)[C@@H]5O)[C@@H](O)[C@H](O[C@H]5O[C@H](CO)[C@@H](O)[C@H](O)[C@@H]5O[C@H]5O[C@H](CO)[C@@H](O)[C@H](O)[C@@H]5O)[C@@H]4O)[C@@H](O)[C@H](O[C@H]4O[C@H](CO)[C@@H](O)[C@H](O)[C@@H]4O[C@H]4O[C@H](CO)[C@@H](O)[C@H](O)[C@@H]4O[C@H]4O[C@H](CO)[C@@H](O)[C@H](O)[C@@H]4O)[C@@H]3O)[C@H](O)[C@H]2NC(C)=O)[C@@H](CO)O[C@H]1*; Hpra′ = its azide, alkyne or alkene has reacted where a group follows in round brackets
# B1: PGT128 (antibody, V domains shown)
# VH: QPQLQESGPTLVEASETLSLTCAVSGDSTAACNSFWGWVRQPPGKGLEWVGSLSHCASYWNRGWTYHNPSLKSRLTLALDTPKNLVFLKLNSVTAADTATYYCARFGGEVLRYTDWPKPAWVDLWGRGTLVTVSS
# VL: QSALTQPPSASGSPGQSITISCTGTSNNFVSWYQQHAGKAPKLVIYDVNKRPSGVPDRFSGSKSGNTASLTVSGLQTDDEAVYYCGSLVGNWDVIFGGGTKLTVL
# Columns and labels:
# Assay in all cases: BLI
# PGT128 [1] = target: B1
# [2] = target: random scrambled version of the H1 sequence containing three glycans and cyclization (peptide 6) (three Man9GlcNAc2 glycans attached by CuAAC on homopropargylglycine (printed as M); cyclized; biotin on the C-terminal lysine)
# [3] = target: H1 mutant without the glycans at the second and third glycosylation sites (peptide 4) (Man9GlcNAc2 by CuAAC on homopropargylglycine at the first glycosylation site only; biotin on the C-terminal lysine)
# [4] = target: H1 mutant without the glycan at the first of the three glycosylation sites (peptide 3) (Man9GlcNAc2 by CuAAC on homopropargylglycine at the second and third glycosylation sites only; biotin on the C-terminal lysine)
# PGT128 [5] = target: B1; remark: listed apart in the source
# m14 = target: m14
# [6] = target: GB1R-non-glycosylated peptide (12)
# m13 = target: m13
# m12 = target: m12
binder,measurement,setting,value
"YTEKHNGIGDIRPAIC(iodoacetamide)[Hpra′](Man9GlcNAc2)NSKNQNHRC(iodoacetamide)NHYQIKLYIH[Hpra′](Man9GlcNAc2)L[Hpra′](Man9GlcNAc2)RLPHNYRNS (not fully specified (C-terminus); also: Man9GlcNAc2 attached by CuAAC, biotin on the C-terminal lysine (no K at C-terminus of given chain)) [acyclic H1 variant (peptide 7)]",koff,PGT128 [1],0.00616 s⁻¹
B1,koff,[2],0.0132 s⁻¹
same,Kd,[3],21.1 nM
same,koff,[3],0.00221 s⁻¹
same,Kd,[4],0.94 nM
same,koff,[4],5.6e-05 s⁻¹
"YTEKHNGIAAIAPAIC[Hpra′](Man9GlcNAc2)NSKNQNHRCNHYQIKLYIH[Hpra′](Man9GlcNAc2)L[Hpra′](Man9GlcNAc2)RLPHNYRNS (not fully specified (C-terminus); cysteine pairing not given here; also: Man9GlcNAc2 attached by CuAAC, biotin on the C-terminal lysine (no K at C-terminus of given chain)) [H1 mutant with IGDIR changed to IAAIA (peptide 5)]",koff,PGT128 [1],0.00212 s⁻¹
same,Kd,PGT128 [5],12.4 nM
"YTEKHNGIGDIRPAIC[Hpra′](Man9GlcNAc2)NSKNQNHRCNHYQIKLYIH[Hpra′](Man9GlcNAc2)L[Hpra′](Man9GlcNAc2)RLPHNYRNS (linker 16-26 via m‑dibromoxylene (inferred); not fully specified (C-terminus); also: Man9GlcNAc2 attached by CuAAC, biotin on the C-terminal lysine (no K at C-terminus of given chain)) [H1 glycopeptide (peptide 1)]",koff,PGT128 [1],6.3e-05 s⁻¹
"SIKLINQ[Hpra′](Man9GlcNAc2)[Hpra′](Man9GlcNAc2)TTNPHLRLHIGDIRRLIKDLY[Hpra′](Man9GlcNAc2)FRVYYRPTNSGRRLFVN (not fully specified (C-terminus); also: Man9GlcNAc2 attached by CuAAC, biotin on the C-terminal lysine (no K at C-terminus of given chain)) [L1 glycopeptide (peptide 8)]",koff,PGT128 [1],0.000645 s⁻¹
"LFKPYPKIGDIRKARC[Hpra′](Man9GlcNAc2)LQHTLHHRTNKQPSYRRRLKTLIPLFRRC[Hpra′](Man9GlcNAc2)L (not fully specified (C-terminus); cysteine pairing not given here; also: Man9GlcNAc2 attached by CuAAC, biotin on the C-terminal lysine (no K at C-terminus of given chain)) [H22 glycopeptide (peptide 2)]",koff,PGT128 [1],0.00635 s⁻¹
gl-PGT121 (protein) chain 1: SYVLTQPPSVSVAPGQTARITCGGNNIGSKSVHWYQQKPGQAPVLVVYDDSDRPSGIPERFSGSNSGNTATLTISRVEAGDEADYYCQVWDSSSDHPWVFGGGTKLTVLGQPKAAPSVTLFPPSSEELQANKATLVCLISDFYPGAVTVAWKADSSPVKAGVETTTPSKQSNNKYAASSYLSLTPEQWKSHRSYSCQVTHEGSTVEKTVAPTECS chain 2: QVQLQESGPGLVKPSETLSLTCTVSGGSISSYYWSWIRQPPGKGLEWIGYIYYSGSTNYNPSLKSRVTISVDTSKNQFSLKLSSVTAADTAVYYCARTQQGKRIYGVVSFGDYYYYYYMDVWGKGTTVTVSSASTKGPSVFPLAPSSKSTSGGTAALGCLVKDYFPEPVTVSWNSGALTSGVHTFPAVLQSSGLYSLSSVVTVPSSSLGTQTYICNVNHKPSNTKVDKRVEPKSCDKTHHHHHH,Kd,m14,570 nM
same,koff,m14,0.00262 s⁻¹
same,Kd,[6],710 nM
same,koff,[6],0.00199 s⁻¹
m2 (protein) chain 1: QVHLQESGPGLVKPSETLSLTCNVSGTLVRDNYWSWIRQPLGKQPEWIGYVHDSGDTNYNPSLKSRVHLSLDKSKNLVSLRLTGVTAADSAIYYCATTKHGRRIYGVVAFKEWFTYFYMDVWGKGTSVTVSS chain 2: APTFVSVAPGQTARITCGEESLGSRSVIWYQQRPGQAPSLIIYNNNDRPSGIPDRFSGSPGSTFGTTATLTITSVEAGDEADYYCHIWDSRRPTNWVFGEGTTLIVL,koff,m13,0.000202 s⁻¹
same,koff,m12,0.000802 s⁻¹
